{"source": "patent US10532083B2", "about": "“Methods for inducing differentiation or conversion of white adipocytes and/or preadipocytes to brown adipocites using FGF8” (Technische Universität München, priority 2014, dated 2020)", "molecules": {"B1": {"name": "FGF17: human recombinant fibroblast growth factor 17 (PeproTech), FGF8 subfamily; SEQ ID NO:23 (protein)", "chain": "MGAARLLPNLTLCLQLLILCCQTQGENHPSPNFNQYVRDQGAMTDQLSRRQIREYQLYSRTSGKHVQVTGRRISATAEDGNKFAKLIVETDTFGSRVRIKGAESEKYICMNKRGKLIGKPSGKSKDCVFTEIVLENNYTAFQNARHEGWFMAFTRQGRPRQASRSRQNQREAHFIKRLYQGQLPFPNHAEKQKQFEFVGSAPTRRTKRTRRPQPLT", "modifications": "human FGF17"}, "B2": {"name": "FGF8a: human recombinant FGF8 spliceform a (R&D Systems); SEQ ID NO:15 (protein)", "chain": "MGSPRSALSCLLLHLLVLCLQAQHVREQSLVTDQLSRRLIRTYQLYSRTSGKHVQVLANKRINAMAEDGDPFAKLIVETDTFGSRVRVRGAETGLYICMNKKGKLIAKSNGKGKDCVFTEIVLENNYTALQNAKYEGWYMAFTRKGRPRKGSKTRQHQREVHFMKRLPRGHHTTEQSLRFEFLNYPPFTRSLRGSQRTWAPEPR", "modifications": "human FGF8a"}, "B3": {"name": "FGF21: endocrine fibroblast growth factor 21, prior-art browning factor (Fisher et al. 2012) (protein, UniProt Q9NSA1 29-209, looked up)", "Fibroblast growth factor 21": "HPIPDSSPLLQFGGQVRQRYLYTDDAQQTEAHLEIREDGTVGGAADQSPESLLQLKALKPGVIQILGVKTSRFLCQRPDGALYGSLHFDPEACSFRELLLEDGYNVYQSEAHGLPLHLPGNKSPHRDPAPRGPARFLPLPGLPPALPEPPGILAPQPPDVGSSDPLSMVGPSQGRSPSYAS"}, "B4": {"name": "FGF8f: human recombinant FGF8 spliceform f (R&D Systems); SEQ ID NO:18 (protein)", "chain": "MGSPRSALSCLLLHLLVLCLQAQEGPGRGPALGRELASLFRAGREPQGVSQQVTVQSSPNFTQHVREQSLVTDQLSRRLIRTYQLYSRTSGKHVQVLANKRINAMAEDGDPFAKLIVETDTFGSRVRVRGAETGLYICMNKKGKLIAKSNGKGKDCVFTEIVLENNYTALQNAKYEGWYMAFTRKGRPRKGSKTRQHQREVHFMKRLPRGHHTTEQSLRFEFLNYPPFTRSLRGSQRTWAPEPR", "modifications": "human FGF8f"}, "B5": {"name": "FGF8e: human recombinant FGF8 spliceform e (R&D Systems); SEQ ID NO:17 (protein)", "chain": "MGSPRSALSCLLLHLLVLCLQAQEGPGRGPALGRELASLFRAGREPQGVSQQHVREQSLVTDQLSRRLIRTYQLYSRTSGKHVQVLANKRINAMAEDGDPFAKLIVETDTFGSRVRVRGAETGLYICMNKKGKLIAKSNGKGKDCVFTEIVLENNYTALQNAKYEGWYMAFTRKGRPRKGSKTRQHQREVHFMKRLPRGHHTTEQSLRFEFLNYPPFTRSLRGSQRTWAPEPR", "modifications": "human FGF8e"}}, "key": {"[1]": {"system": "visceral, epididymal white adipocytes", "test": "Ucp1 / brown adipocyte marker mRNA (qPCR) in immortalized epididymal white adipocytes treated with FGFs", "format": "cell-based, murine", "settings": "epididymal adipocytes; six days of differentiation; FGF8a, b, e, f 25.0 ng/ml, FGF17 10.0 ng/ml", "protocol": "(§1) Screening paracrine FGFs for a browning potential. A, B—Screening of all paracrine FGFs in immortalized white adipocytes. Subcutaneous, inguinal and visceral, epididymal white adipocytes were grown to confluence in Dulbecco's modified Eagle's medium with 4.5 g/l glucose, supplemented with 20 nmol/l insulin, 1 nmol/l triiodothyronine, 20% fetal bovine serum, and penicillin/streptomycin. Upon reaching confluence, differentiation was induced with 500 mmol/l isobutylmethylxanthine, 250 mmol/l indomethacine, and 2 mg/ml dexamethasone for 24 hours. Subsequently, members of the paracrine FGF protein family were added to the medium for the following six days. The medium and the FGF indicated were changed every 48 hours. Untreated cells served as a negative control. At the end of the differentiation process total RNA was isolated using TRIzol reagents, RNA quality and concentration was measured by photometric analysis, and 5 μg of total RNA was reverse-transcribed to cDNA. Finally, quantitative analysis of UCP-1 mRNA expression was performed. A bar graph analysis including the SEM of 3 to 6 independent experiments is shown. […] B—Four different splicing forms of the Fgf8 gene were compared by quantifying Ucp1 mRNA expression in fully differentiated white adipocytes. UCP-1 mRNA abundance is shown in percent of the FGF8b value. Fgf8b and Fgf8f were able to increase expression in epididymal adipocytes. C—Illustration depicting the different exon usage that characterizes the FGF8 spliceforms a, b, e, and f.\n(§2) Dose dependency of Ffg8b action. A, B—Subcutaneous, inguinal and visceral, epididymal white adipocytes were grown to confluence in Dulbecco's modified Eagle's medium with 4.5 g/l glucose, supplemented with 20 nmol/l insulin, 1 nmol/l triiodothyronine, 20% fetal bovine serum, and penicillin/streptomycin. Upon reaching confluence, differentiation was induced with 500 mmol/l isobutylmethylxanthine, 250 mmol/l indomethacine, and 2 mg/ml dexamethasone for 24 hours. Subsequently, FGF8b in five indicated concentrations were added to the medium for the following six days. The medium and the FGF8b were changed every 48 hours. Untreated cells served as a negative control. At the end of the differentiation process total RNA was isolated using TRIzol reagents, RNA quality and concentration was measured by photometric analysis, and 5 μg of total RNA was reverse-transcribed to cDNA. Finally, quantitative analysis of UCP-1 mRNA expression was performed. FGF8b induces Ucp1 mRNA abundance in inguinal and epididymal adipocytes. Epididymal fat cells were more dose dependently responsive to Fgf8b treatment as compared to inguinal cells. The latter were responsive to FGF8b treatment above the threshold indicated. B—The absolute increase of several genes typical for brown fat cells.\n(§3) Treatment timecourse experiment. A, B—Subcutaneous, inguinal and visceral, epididymal white adipocytes were grown to confluence (prolif. denotes proliferation period) in Dulbecco's modified Eagle's medium with 4.5 g/l glucose, supplemented with 20 nmol/l insulin, 1 nmol/l triiodothyronine, 20% fetal bovine serum, and penicillin/streptomycin. Upon reaching confluence, differentiation was induced with 500 mmol/l isobutylmethylxanthine, 250 mmol/l indomethacine, and 2 mg/ml dexamethasone for 24 hours (induction). Subsequently, the cells were cultured for another six days (differentiation). At the end of the differentiation process total RNA was isolated using TRIzol reagents, RNA quality and concentration was measured by photometric analysis, and 5 μg of total RNA was reverse-transcribed to cDNA. Finally, quantitative analysis of UCP-1 mRNA expression was performed. Untreated cells served as a negative control. A bar graph analysis including the SEM of 5 independent experiments is shown. A—Epididymal fat cells were treated with FGF8b during different time windows as given by black squares indicating one day of treatment each. […]"}, "[2]": {"system": "subcutaneous, inguinal white adipocytes", "test": "Ucp1 / brown adipocyte marker mRNA (qPCR) in immortalized inguinal white adipocytes treated with FGFs", "format": "cell-based, murine", "settings": "inguinal adipocytes; six days of differentiation; FGF8a, b, e, f 25.0 ng/ml, FGF17 10.0 ng/ml", "protocol": "as §1, §2, §3"}, "[3]": {"system": "subcutaneous white adipose tissue", "settings": "cited from earlier work"}}, "data": [{"molecule": "B1", "values": [{"measurement": "Induction of Ucp1 mRNA expression (browning potential), screening of paracrine FGFs and FGF8 spliceforms", "setting": "[1]", "result": "increased expression of Ucp1 mRNA expression"}, {"measurement": "Induction of Ucp1 mRNA expression (browning potential), screening of paracrine FGFs and FGF8 spliceforms", "setting": "[2]", "result": "strongly induce Ucp1 mRNA expression"}]}, {"molecule": "B2", "values": [{"measurement": "Induction of Ucp1 mRNA expression (browning potential), screening of paracrine FGFs and FGF8 spliceforms", "setting": "[1]", "result": "did not induce Ucp1 mRNA expression"}, {"measurement": "Induction of Ucp1 mRNA expression (browning potential), screening of paracrine FGFs and FGF8 spliceforms", "setting": "[2]", "result": "did not induce Ucp1 mRNA expression"}]}, {"molecule": "B3", "values": [{"measurement": "Appearance of brown-like adipocytes", "setting": "[3]", "result": "increases the appearance of brown-like adipocytes"}]}, {"molecule": "B4", "values": [{"measurement": "Induction of Ucp1 mRNA expression (browning potential), screening of paracrine FGFs and FGF8 spliceforms", "setting": "[1]", "result": "effective"}, {"measurement": "Induction of Ucp1 mRNA expression (browning potential), screening of paracrine FGFs and FGF8 spliceforms", "setting": "[2]", "result": "only effective in inducing Ucp1 expression in adipocytes of epididymal adipocytes"}]}, {"molecule": "B5", "values": [{"measurement": "Induction of Ucp1 mRNA expression (browning potential), screening of paracrine FGFs and FGF8 spliceforms", "setting": "[1]", "result": "did not induce Ucp1 mRNA expression"}, {"measurement": "Induction of Ucp1 mRNA expression (browning potential), screening of paracrine FGFs and FGF8 spliceforms", "setting": "[2]", "result": "did not induce Ucp1 mRNA expression"}]}]}
